Where two headings read alike, the source gives them in different places. No end group written: not given here.
Legend:
SH3-2 domain of NCK1 = molecular target: T1, SH3-2 domain of NCK1 (Homo sapiens, UniProt P16333); experiment: Isothermal titration calorimetry (ITC) binding to NCK1 SH3-2 domain
T1 construct: To amplify the NCK1 SH3-2 domain, the primers; 10xHis tag with TEV site (vector pSF-OXB20-NH2-10HIS) (N, cleaved yes); made in house; host or cells: E. coli C43(DE3)
How it was run: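 Measured at 25 °C, pH 8.0 (10 mM sodium buffer, sodium chloride), by calorimetric titration of 3-7.5 mM peptide into 0.125-0.3 mM recombinant NCK1 SH3-2 domain with His tag removed, using 20 injections. Affinities are means of three experiments, fitted with stoichiometry 0.8-1.2.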

db/db mice = experiment: db/db genetic mouse model of diabetes and obesity; format: in vivo
Source text: Animals: All animals were housed and tested following European (Directive on the Protection of Animals used for Scientific Purposes, 2010/63/EU) and UK Home Office regulations. Experiments were approved by the University Ethics Board and carried out in accordance with the Animal (Scientific Procedures) Act 1986 and following ARRIVE guidelines. Db/db male mice (~4 weeks old) were purchased from Jackson, USA. All mice received standard mouse chow diet and had ad libitum access to food and water and were kept in a 12 h light/dark cycle.
Treatments: Mice were assigned and counterbalanced according to their body weights in to the following groups: control PBS (n=10); MD18 at 15 mg/kg (n=7), 30 mg/kg (n=8), or 45 mg/kg (n=7); or MD20 at 15 mg/kg (n=9), 30 mg/kg (n=10) or 45 mg/kg (n=7). MD18 and MD20 were administered once daily via subcutaneous (SC) injection for 41 days, whereas control mice received a daily SC injection of vehicle (PBS). MD18 and MD20 were kept in −20 °C and dissolved in sterile phosphate buffered saline (PBS).
Body weights and body mass composition: Body weights were recorded twice weekly during the study, and fat mass and lean mass composition was analysed using an EchoMRI scanner (EchoMedical Systems, Houston, TX, U.S.A.).
Metabolic measurements: All animals were five-hour fasted before obtaining basal glucose measurements and GTT, ITT, and corresponding treatments were administered 1 hour before glucose measurements. Tail blood glucose was measured using AlphaTRAK 2 glucose strips and glucometer (Abbot, UK), or blood was collected and glucose assay (AB65333, Abcam) was performed where readings were too high to be recorded via glucometer. Human Actrapid Insulin (NovaNordisk) at 1 IU/kg dose was administered during ITT.
Serum and liver assays: Trunk-derived blood was collected from 5 h-fasted mice into serum separator microtubes and kept at −80 °C. Serum was used for insulin (#EZRMI-13K, Merck) and leptin (#90030, Crystal Chem) analyses.
Statistical analyses: Data were reported as means±SEM and analysed using one- or two-way ANOVA with Bonferroni post hoc tests, as appropriate. GraphPad Prism (V8, GraphPad Software, Inc., San Diego, California, USA) was used for statistical analyses. P-values <0.05 were considered significant.

NCK1 SH3-2 domain [1] = molecular target: T2, NCK1 SH3-2 domain (human); experiment: ITC
T2 chain: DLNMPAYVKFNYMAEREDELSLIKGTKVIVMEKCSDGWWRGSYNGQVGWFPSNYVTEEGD

NCK1 SH3-2 domain [2] = molecular target: T2, NCK1 SH3-2 domain; experiment: ITC
NCK1 SH3-2 domain [3] = molecular target: T2, NCK1 SH3-2 domain; experiment: ITC
NCK1 SH3-2 domain [4] = molecular target: T2, NCK1 SH3-2 domain; experiment: ITC
NCK1 SH3-2 domain [5] = molecular target: T2, NCK1 SH3-2 domain; experiment: ITC
NCK1 SH3-2 domain [6] = molecular target: T2, NCK1 SH3-2 domain; experiment: ITC
NCK1 SH3-2 domain [7] = molecular target: T2, NCK1 SH3-2 domain; experiment: ITC
NCK1 SH3-2 domain [8] = molecular target: T2, NCK1 SH3-2 domain; experiment: ITC

In the case of Ac-PPRPPKR-NH2 [MD18, Ac-PPRPPKR-NH2], the Kd (SH3-2 domain of NCK1; Peptide truncation analysis, ITC, 25 °C, pH 8.0) is reported as at most 300 µM, the Kd (SH3-2 domain of NCK1; ability to bind SH3-2 domain of NCK1, stated in text) is reported as under 193 µM and the leptin levels (db/db mice; 15 mg/kg SC daily, about 6 weeks, vs control) is reported as “A trend for decreased leptin levels”. For the same molecule, the “glucose clearance during GTT” value (db/db mice; 15 mg/kg SC daily, week 4, vs control) was “better glucose clearance at 15-minutes post-glucose injection”, the fat mass gain (db/db mice; 15 mg/kg and 30 mg/kg SC daily) was “inhibited fat mass gain” and the body weight gain (db/db mice; 15 mg/kg and 30 mg/kg SC daily, vs control) was “significantly inhibited body weight gain”. The fasted insulin levels (db/db mice; 30 mg/kg SC daily, about 6 weeks, vs control) was “A trend for lower fasted insulin levels”, the basal glucose levels (db/db mice; 5-hour-fasted, SC daily, vs vehicle) was “No significant differences” and the “efficacy with respect to inhibiting body weight, inhibiting fat mass gain, and improving glucose clearance during GTT” value (db/db mice; SC daily, compared to MD20) was “better efficacy as compared to MD20 treatment”. The “insulin tolerance test (ITT)” value (db/db mice; SC daily, week 6, 1 IU/kg insulin, vs control) was “did not detect any significant differences”.

B1: MH121 (peptide)
chain: Ac-PPRYPKR-NH2
With B1 the Kd (NCK1 SH3-2 domain [1]) was under 600 µM.

B2: MH130 (peptide)
chain: Ac-PPREPKR-NH2
B2: no binding (NCK1 SH3-2 domain [2]).

B3: MH134 (peptide)
chain: Ac-PPPEHIPPPPRPPKRILEPHNGKCR-NH2
Molecule B3 has a Kd (NCK1 SH3-2 domain [3]) of under 300 µM.

B4: MH039 (peptide)
chain: Ac-EHIPPP-NH2
B4 was tested, and the Kd (NCK1 SH3-2 domain [4]) was over 1000 µM.

B5: MH065 (peptide)
chain: Ac-PPRPPKRILE-NH2
B5 was tested, and the Kd (NCK1 SH3-2 domain [3]) was under 300 µM.

B6: MH037 (peptide)
chain: Ac-PPPPRP-NH2
B6 was tested, and the Kd (NCK1 SH3-2 domain [4]) was over 1000 µM.

B7: MH125 (peptide)
chain: Ac-PPRVPKR-NH2
B7 showed a Kd (NCK1 SH3-2 domain [1]) of under 300 µM.

B8: MH118 (peptide)
chain: Ac-PPRWPKR-NH2
B8: no binding (NCK1 SH3-2 domain [2]).

B9: MH008 (peptide)
chain: Ac-ARPPKR-NH2
Molecule B9 has a Kd (NCK1 SH3-2 domain [5]) of over 1000 µM.

B10: MH077 (peptide)
chain: Ac-PPPEHIPPPPRPPKRILE-NH2
With B10 the Kd (NCK1 SH3-2 domain [3]) was under 300 µM.

B11: MH013 (peptide)
chain: Ac-PRPPKA-NH2
B11 showed a Kd (NCK1 SH3-2 domain [5]) of over 1000 µM.

B12: MH010 (peptide)
chain: Ac-PRAPKR-NH2
B12 gave a Kd (NCK1 SH3-2 domain [5]) of over 1000 µM.

B13: MH101 (peptide)
chain: Ac-PPRLPKR-NH2
With B13 the Kd (NCK1 SH3-2 domain [1]) was under 600 µM.

B14: MH104 (peptide)
chain: Ac-PPRKPKR-NH2
Molecule B14 has a Kd (NCK1 SH3-2 domain [1]) of under 600 µM.

B15: MH011 (peptide)
chain: Ac-PRPAKR-NH2
With B15 the Kd (NCK1 SH3-2 domain [5]) was over 1000 µM.

B16: MH041 (peptide)
chain: Ac-PPPRPPK-NH2
In the case of B16, the Kd (NCK1 SH3-2 domain [4]) is reported as over 1000 µM.

B17: MH035 (peptide)
chain: Ac-PPRPPK-NH2
B17 gave a Kd (NCK1 SH3-2 domain [4]) of over 1000 µM.

B18: MH009 (peptide)
chain: Ac-PAPPKR-NH2
Molecule B18 has a Kd (NCK1 SH3-2 domain [5]) of under 300 µM.

B19: MH063 (peptide)
chain: Ac-PPRPPKRI-NH2
With B19 the Kd (NCK1 SH3-2 domain [6]) was under 300 µM and the Kd (NCK1 SH3-2 domain [3]) was under 300 µM.

B20: MH115 (peptide)
chain: Ac-PPRTPKR-NH2
B20 was tested, and the Kd (NCK1 SH3-2 domain [1]) was under 600 µM.

B21: MH137 (peptide)
chain: Ac-PPPEHIPPPPRPPKRILEPHNGKCREFFPN-NH2
In the case of B21, the Kd (NCK1 SH3-2 domain [3]) is reported as under 300 µM.

B22: MH128 (peptide)
chain: Ac-PPRDPKR-NH2
B22: no binding (NCK1 SH3-2 domain [2]).

B23: MH075 (peptide)
chain: H-PPRPPKR-NH2
Work on B23 yielded a Kd (NCK1 SH3-2 domain [7]) of under 300 µM.

B24: MH135 (peptide)
chain: Ac-WKELSHEDLEPPPEHIPPPPRPPKR-NH2
With B24 the Kd (NCK1 SH3-2 domain [3]) was under 300 µM.

B25: MH012 (peptide)
chain: Ac-PRPPAR-NH2
B25 showed a Kd (NCK1 SH3-2 domain [5]) of under 600 µM.

B26: MH093 (peptide)
chain: Ac-PPRGPKR-NH2
B26: no binding (NCK1 SH3-2 domain [2]).

B27: MH129 (peptide)
chain: Ac-PPRCPKR-NH2
B27: no binding (NCK1 SH3-2 domain [2]).

B28: MH076 (peptide)
chain: Ac-PPRPPKK-NH2
B28 showed a Kd (NCK1 SH3-2 domain [7]) of over 1000 µM.

B29: MH067 (peptide)
chain: Ac-PPRFPKR-NH2
Work on B29 yielded a Kd (NCK1 SH3-2 domain [1]) of over 600 µM.

B30: MH108 (peptide)
chain: Ac-PPRSPKR-NH2
B30: no binding (NCK1 SH3-2 domain [2]).

B31: MH111 (peptide)
chain: Ac-PPRMPKR-NH2
B31: no binding (NCK1 SH3-2 domain [2]).

B32: MH127 (peptide)
chain: Ac-PPRNPKR-NH2
B32: no binding (NCK1 SH3-2 domain [2]).

B33: MH062 (peptide)
chain: Ac-PPRRPKR-NH2
Work on B33 yielded a Kd (NCK1 SH3-2 domain [1]) of under 600 µM.

B34: MH132 (peptide)
chain: Ac-PPRHPKR-NH2
B34: no binding (NCK1 SH3-2 domain [2]).

B35: MH036 (peptide)
chain: Ac-PPPRPP-NH2
Molecule B35 has a Kd (NCK1 SH3-2 domain [4]) of over 1000 µM.

B36: MH097 (peptide)
chain: Ac-PPRIPKR-NH2
Molecule B36 has a Kd (NCK1 SH3-2 domain [1]) of under 300 µM.

B37: MH038 (peptide)
chain: Ac-IPPPPR-NH2
In the case of B37, the Kd (NCK1 SH3-2 domain [4]) is reported as over 1000 µM.

B38: MH131 (peptide)
chain: Ac-PPRQPKR-NH2
B38: no binding (NCK1 SH3-2 domain [2]).

B39: MH064 (peptide)
chain: Ac-PPRPPKRIL-NH2
Molecule B39 has a Kd (NCK1 SH3-2 domain [3]) of under 300 µM.

B40: MH090 (peptide)
chain: Ac-HEDLEPPPEHIPPPPRPPKR-NH2
With B40 the Kd (NCK1 SH3-2 domain [3]) was under 300 µM.

B41: MH040 (peptide)
chain: Ac-PPEHIP-NH2
With B41 the Kd (NCK1 SH3-2 domain [4]) was over 1000 µM.

B42: MH004 (peptide)
chain: Ac-PPPEHIPPPPRAPKR-NH2
Work on B42 yielded a Kd (NCK1 SH3-2 domain [8]) of under 300 µM.

B43: MH136 (peptide)
chain: SVQDQWKELSHEDLEPPPEHIPPPPRPPKR-NH2
modifications: not fully specified (N-terminus)
In the case of B43, the Kd (NCK1 SH3-2 domain [3]) is reported as under 300 µM.

B44: MH089 (peptide)
chain: Ac-PPPEHIPPPPRPPKRILEPH-NH2
Molecule B44 has a Kd (NCK1 SH3-2 domain [3]) of under 300 µM.

— patent US20260365696A1, “INHIBITORS OF PTP1B / NCK1 INTERACTION AND METHODS OF MAKING AND USING SAME” (Radella Pharmaceuticals LLC, priority 2023, published 2026)
